B1: FAM46C (parent)
chain: VRSRLEEAGIKVHDVRLNGSAAGH
B2: TRAF3IP2 (parent)
chain: FMEKRNQWLVSQLSAASPDTGHDS

This is an account of results in the supplement of paper PMC10567573.
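Note: lentivirally expressed fusions sorted by FACS into six bins by GFP to DsRed ratio, PSI derived from sequencing read proportions per bin multiplied by bin number.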

One data set covers variants of B1. Nature of the data set: protein stability index of a GFP-peptide fusion (GPS, HEK-293T) (PSI 1-6); higher = more stable. Particulars: c terminus: a fixed tail appended.
VRSRLEEAGIKVHDMRLNGSAAGH: the protein stability index was 3.41.
For the variant VRSRLEEAGIKVHDDRLNGSAAGH, the protein stability index worked out at 5.04.
Regarding VRSRLEEAGIKVHDFRLNGSAAGH, the protein stability index was determined as 3.57.
Same read-out and setting: the same measure for VRSRLEEAGIKVHDNRLNGSAAGH: 3.62; for VRSRLEEAGIKVHDRRLNGSAAGH: 3.75; for VRSRLEEAGIKVHDARLNGSAAGH: 4.24.
On to VRSRLEEAGIKVHDKRLNGSAAGH, for which the protein stability index came to 3.44.
On the same count and under the same terms, the same measure for VRSRLEEAGIKVHDHRLNGSAAGH: 4.22.
On to VRSRLEEAGIKVHDCRLNGSAAGH, for which the protein stability index is 2.42.
On the same count and under the same terms, the figure for VRSRLEEAGIKVHDERLNGSAAGH is 3.27; for VRSRLEEAGIKVHDYRLNGSAAGH it is 2.61.
VRSRLEEAGIKVHDIRLNGSAAGH: the protein stability index worked out at 2.06.
The same measure, in the same setting: the same measure for VRSRLEEAGIKVHDVRRNGSAAGH: 3.52; for VRSRLEEAGIKVHDVRINGSAAGH: 2.53; for VRSRLEEAGIKVHDVRGNGSAAGH: 4.55.
The same measure, in the same setting: the figure for VRSRLEEAGIKVHDVRPNGSAAGH is 2.6; for VRSRLEEAGIKVHDVRSNGSAAGH it is 4.33.
Take VRSRLEEAGIKVHDVRKNGSAAGH: the protein stability index stood at 4.53.
On the same count and under the same terms, the figure for VRSRLEEAGIKVHDVRNNGSAAGH is 3.75; for VRSRLEEAGIKVHDVRQNGSAAGH it is 4.23; for VRSRLEEAGIKVHDVRANGSAAGH it is 3.15.
Same read-out and setting: the figure for VRSRLEEAGIKVHDVRFNGSAAGH is 2.47; for VRSRLEEAGIKVHDVRDNGSAAGH it is 4; for VRSRLEEAGIKVHDVRCNGSAAGH it is 2.61.
Still for that read-out and setting: the figure for VRSRLEEAGIKVHDVRENGSAAGH is 4.2; for VRSRLEEAGIKVHDVRVNGSAAGH it is 2.67.
Turning to VRSRLEEAGIKVHDVRLNGSANGH, the protein stability index was found to be 2.25.
The same measure, in the same setting: the same measure for VRSRLEEAGIKVHDVRLNGSAVGH: 3.25; for VRSRLEEAGIKVHDVRLNGSAGGH: 2.86.
The same measure, in the same setting: the same measure for VRSRLEEAGIKVHDVRLNGSARGH: 2.17; for VRSRLEEAGIKVHDVRLNGSAFGH: 1.25; for VRSRLEEAGIKVHDVRLNGSAQGH: 2.1.
On the same count and under the same terms, the same measure for VRSRLEEAGIKVHDVRLNGSAYGH: 1.94; for VRSRLEEAGIKVHDVRLNGSAWGH: 2.68; for VRSRLEEAGIKVHDVRLNGSAIGH: 2.74.
Turning to VRSRLEEAGIKVHDVRLNGSACGH, the protein stability index is 1.65.
For the variant VRSRLEEAGIKVHDVRLNGSASGH, the protein stability index worked out at 2.17.
The same measure, in the same setting: the figure for VRSRLEEAGIKVHDVRLNGSAEGH is 2.12; for VRSRLEEAGIKVHDVRLNGSAMGH it is 2.66.
For VRSRLEEAGIKVHDVRLNGSAPGH, the protein stability index came to 2.37.

Another data set covers variants of B2. Described as above. Particulars: c terminus: a fixed tail appended.
On to FMEKRNQWLVSQASAASPDTGHDS, for which the protein stability index amounted to 3.73.
Still for that read-out and setting: the same measure for FMEKRNQWLVSQYSAASPDTGHDS: 2.35; for FMEKRNQWLVSQMSAASPDTGHDS: 2.48; for FMEKRNQWLVSQGSAASPDTGHDS: 2.47.
Take FMEKRNQWLVSQLSARSPDTGHDS: the protein stability index came out at 1.54.
For the variant FMEKRNQWLVSQLSAFSPDTGHDS, the protein stability index is 2.9.
In the case of FMEKRNQWLVSQLSADSPDTGHDS, the protein stability index is 2.29.
Consider FMEKRNQRLVSQLSAASPDTGHDS, for which the protein stability index stood at 4.68.
Consider FMEKRNQFLVSQLSAASPDTGHDS, for which the protein stability index is 3.95.
Still for that read-out and setting: the same measure for FMEKRNQQLVSQLSAASPDTGHDS: 4.63; for FMEKRNQWLVDQLSAASPDTGHDS: 3.79.
On the same count and under the same terms, the same measure for FMEKRNQWLVCQLSAASPDTGHDS: 2.22; for FMEGRNQWLVSQLSAASPDTGHDS: 1.89; for FMEQRNQWLVSQLSAASPDTGHDS: 2.57.
On the same count and under the same terms, the same measure for FMEKRNQWLVSQLSLASPDTGHDS: 2.3; for FMEKRNQWLVSQLSWASPDTGHDS: 2.29.
On to FMEKRNQWLVSQLSRASPDTGHDS, for which the protein stability index was 3.45.
Same read-out and setting: the same measure for FMEKRNQWLVSQLSTASPDTGHDS: 2.7; for FMEKRNQWLVSQLSAASPDTYHDS: 2.08; for FMEKRNQWLVSQLSAASPDTFHDS: 1.58.
On the same count and under the same terms, the figure for FMEKRNQWLVSQLSAASPDTTHDS is 2.44; for FMEKRNQWPVSQLSAASPDTGHDS it is 3.83.
Same read-out and setting: the figure for FMEKHNQWLVSQLSAASPDTGHDS is 2.62; for FMEKPNQWLVSQLSAASPDTGHDS it is 1.36; for FMEKRNQWLVSQLSAASPDTGHDT it is 2.41.
Take FMEKRNQWLVSQLSAASPDTGHDA: the protein stability index stood at 2.4.
The same measure, in the same setting: the figure for FMEKRNQWLVSQLSAASPETGHDS is 1.91; for FMEKRNQWLVSQLFAASPDTGHDS it is 1.93.
Still for that read-out and setting: the same measure for FMEKRNQWLVSQLIAASPDTGHDS: 2.08.
Still for that read-out and setting: the same measure for FMEKRNQWLVSQLMAASPDTGHDS: 2.34; for FMEKRNQWLVSQLTAASPDTGHDS: 2.77.
Turning to FMEKRNQWLVSQLCAASPDTGHDS, the protein stability index came to 2.15.
Same read-out and setting: the same measure for AMEKRNQWLVSQLSAASPDTGHDS: 4.91.
Same read-out and setting: the figure for YMEKRNQWLVSQLSAASPDTGHDS is 2.84; for PMEKRNQWLVSQLSAASPDTGHDS it is 3.95; for IMEKRNQWLVSQLSAASPDTGHDS it is 3.72.
Still for that read-out and setting: the figure for FMEKRNQWLVSQLSAAKPDTGHDS is 2.41.
On to FMEKRNQWLVSQLSAATPDTGHDS, for which the protein stability index is 3.03.
The same measure, in the same setting: the same measure for FMEKRNQWLHSQLSAASPDTGHDS: 3.38; for FMEKRNQWLSSQLSAASPDTGHDS: 3.5; for FMEKRNQWLASQLSAASPDTGHDS: 3.61.
Turning to FMEKRNQWLQSQLSAASPDTGHDS, the protein stability index worked out at 2.93.
Still for that read-out and setting: the figure for FMEKRNQWLVSQLSAASPDRGHDS is 1.89; for FMEKRNTWLVSQLSAASPDTGHDS it is 1.79; for FMEKRNWWLVSQLSAASPDTGHDS it is 2.86.
Same read-out and setting: the same measure for FMEKRNQWLVSQLSAASTDTGHDS: 2.94.
On the same count and under the same terms, the same measure for FMEKRNQWLVSQLSAASNDTGHDS: 2.5; for FMEKRNQWLVSQLSAASDDTGHDS: 2.88; for FMEKRNQWLVSQLSAASQDTGHDS: 2.09.
FYEKRNQWLVSQLSAASPDTGHDS: the protein stability index turned out to be 2.97.
Same read-out and setting: the same measure for FDEKRNQWLVSQLSAASPDTGHDS: 3.06; for FNEKRNQWLVSQLSAASPDTGHDS: 3.29; for FMEKRNQWLVSTLSAASPDTGHDS: 1.7.
On the same count and under the same terms, the figure for FMEKRNQWLVSYLSAASPDTGHDS is 1.98.
